Laboratory results: patent publication US20140087995A1 (published 2014)
Numbered stars: 1 amine (or outer) side, 2 acyl side, 3 side chain; on linkers, the order of the positions; unused ones are H or OH. Bridge positions count the residues as written; N and C are the ends. * marks the point of attachment. C20 diacid = O=C(O)CCCCCCCCCCCCCCCCCCC(=O)*; γGlu = O=C(O)[C@H](CCC(=O)[*:2])N[*:1]

T1: human calcitonin receptor (human, UniProt P30988 25-474)
T1 sequence (looked up): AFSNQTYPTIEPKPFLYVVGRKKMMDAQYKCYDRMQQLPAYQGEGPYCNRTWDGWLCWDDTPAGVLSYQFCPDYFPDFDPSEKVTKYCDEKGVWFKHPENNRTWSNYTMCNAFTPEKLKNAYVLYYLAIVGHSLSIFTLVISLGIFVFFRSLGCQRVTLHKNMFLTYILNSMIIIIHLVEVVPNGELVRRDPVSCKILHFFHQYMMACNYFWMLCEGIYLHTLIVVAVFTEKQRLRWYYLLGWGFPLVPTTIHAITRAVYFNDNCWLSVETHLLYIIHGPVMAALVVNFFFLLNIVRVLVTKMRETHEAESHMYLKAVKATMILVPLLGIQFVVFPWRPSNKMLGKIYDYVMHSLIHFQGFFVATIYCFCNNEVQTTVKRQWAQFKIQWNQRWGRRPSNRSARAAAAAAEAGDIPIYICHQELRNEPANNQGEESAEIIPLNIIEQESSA

T2: human amylin receptor (amylin 3(a) receptor: human calcitonin receptor with RAMP-3) (human, UniProt P30988 25-474; O60896 24-148)
T2 sequence (looked up) 1: T1 sequence (looked up)
T2 sequence (looked up) 2: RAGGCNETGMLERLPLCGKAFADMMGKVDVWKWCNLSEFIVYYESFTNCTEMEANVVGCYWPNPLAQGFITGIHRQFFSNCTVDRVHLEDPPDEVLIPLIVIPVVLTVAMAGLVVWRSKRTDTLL

B1: N^α1-[(4S)-4-carboxy-4-(19-carboxynonadecanoylamino)butanoyl]-[Glu14,Arg17,Pro21,Pro27,His35]-h-amylin (peptide)
peptide: {C20 diacid-γGlu}-KCNTATCATQRLAEFLRHSSPNFGAIPSSTNVGSHTY-NH2
modifications: disulfide 2-7
SMILES: CC[C@H](C)[C@H](NC(=O)[C@H](C)NC(=O)CNC(=O)[C@H](Cc1ccccc1)NC(=O)[C@H](CC(N)=O)NC(=O)[C@@H]1CCCN1C(=O)[C@H](CO)NC(=O)[C@H](CO)NC(=O)[C@H](Cc1c[nH]cn1)NC(=O)[C@H](CCCNC(=N)N)NC(=O)[C@H](CC(C)C)NC(=O)[C@H](Cc1ccccc1)NC(=O)[C@H](CCC(=O)O)NC(=O)[C@H](C)NC(=O)[C@H](CC(C)C)NC(=O)[C@H](CCCNC(=N)N)NC(=O)[C@H](CCC(N)=O)NC(=O)[C@@H](NC(=O)[C@H](C)NC(=O)[C@@H]1CSSC[C@H](NC(=O)[C@H](CCCCN)NC(=O)CC[C@H](NC(=O)CCCCCCCCCCCCCCCCCCC(=O)O)C(=O)O)C(=O)N[C@@H](CC(N)=O)C(=O)N[C@@H]([C@@H](C)O)C(=O)N[C@@H](C)C(=O)N[C@@H]([C@@H](C)O)C(=O)N1)[C@@H](C)O)C(=O)N1CCC[C@H]1C(=O)N[C@@H](CO)C(=O)N[C@@H](CO)C(=O)N[C@H](C(=O)N[C@@H](CC(N)=O)C(=O)N[C@H](C(=O)NCC(=O)N[C@@H](CO)C(=O)N[C@@H](Cc1c[nH]cn1)C(=O)N[C@H](C(=O)N[C@@H](Cc1ccc(O)cc1)C(N)=O)[C@@H](C)O)C(C)C)[C@@H](C)O
notes: also called compound 18
B2: N^α1-[(4S)-4-carboxy-4-(19-carboxynonadecanoylamino)butanoyl]-[Glu14,Arg17,Pro21,Pro27,Pro37]-h-amylin (peptide)
peptide: {C20 diacid-γGlu}-KCNTATCATQRLAEFLRHSSPNFGAIPSSTNVGSNTP-NH2
modifications: disulfide 2-7
SMILES: CC[C@H](C)[C@H](NC(=O)[C@H](C)NC(=O)CNC(=O)[C@H](Cc1ccccc1)NC(=O)[C@H](CC(N)=O)NC(=O)[C@@H]1CCCN1C(=O)[C@H](CO)NC(=O)[C@H](CO)NC(=O)[C@H](Cc1c[nH]cn1)NC(=O)[C@H](CCCNC(=N)N)NC(=O)[C@H](CC(C)C)NC(=O)[C@H](Cc1ccccc1)NC(=O)[C@H](CCC(=O)O)NC(=O)[C@H](C)NC(=O)[C@H](CC(C)C)NC(=O)[C@H](CCCNC(=N)N)NC(=O)[C@H](CCC(N)=O)NC(=O)[C@@H](NC(=O)[C@H](C)NC(=O)[C@@H]1CSSC[C@H](NC(=O)[C@H](CCCCN)NC(=O)CC[C@H](NC(=O)CCCCCCCCCCCCCCCCCCC(=O)O)C(=O)O)C(=O)N[C@@H](CC(N)=O)C(=O)N[C@@H]([C@@H](C)O)C(=O)N[C@@H](C)C(=O)N[C@@H]([C@@H](C)O)C(=O)N1)[C@@H](C)O)C(=O)N1CCC[C@H]1C(=O)N[C@@H](CO)C(=O)N[C@@H](CO)C(=O)N[C@H](C(=O)N[C@@H](CC(N)=O)C(=O)N[C@H](C(=O)NCC(=O)N[C@@H](CO)C(=O)N[C@@H](CC(N)=O)C(=O)N[C@H](C(=O)N1CCC[C@H]1C(N)=O)[C@@H](C)O)C(C)C)[C@@H](C)O
notes: also called compound 8
B3: N^α1-[(4S)-4-carboxy-4-(19-carboxynonadecanoylamino)butanoyl]-[Glu14,Arg17,Pro21,Pro27,Pro34]-h-amylin (peptide)
peptide: {C20 diacid-γGlu}-KCNTATCATQRLAEFLRHSSPNFGAIPSSTNVGPNTY-NH2
modifications: disulfide 2-7
SMILES: CC[C@H](C)[C@H](NC(=O)[C@H](C)NC(=O)CNC(=O)[C@H](Cc1ccccc1)NC(=O)[C@H](CC(N)=O)NC(=O)[C@@H]1CCCN1C(=O)[C@H](CO)NC(=O)[C@H](CO)NC(=O)[C@H](Cc1c[nH]cn1)NC(=O)[C@H](CCCNC(=N)N)NC(=O)[C@H](CC(C)C)NC(=O)[C@H](Cc1ccccc1)NC(=O)[C@H](CCC(=O)O)NC(=O)[C@H](C)NC(=O)[C@H](CC(C)C)NC(=O)[C@H](CCCNC(=N)N)NC(=O)[C@H](CCC(N)=O)NC(=O)[C@@H](NC(=O)[C@H](C)NC(=O)[C@@H]1CSSC[C@H](NC(=O)[C@H](CCCCN)NC(=O)CC[C@H](NC(=O)CCCCCCCCCCCCCCCCCCC(=O)O)C(=O)O)C(=O)N[C@@H](CC(N)=O)C(=O)N[C@@H]([C@@H](C)O)C(=O)N[C@@H](C)C(=O)N[C@@H]([C@@H](C)O)C(=O)N1)[C@@H](C)O)C(=O)N1CCC[C@H]1C(=O)N[C@@H](CO)C(=O)N[C@@H](CO)C(=O)N[C@H](C(=O)N[C@@H](CC(N)=O)C(=O)N[C@H](C(=O)NCC(=O)N1CCC[C@H]1C(=O)N[C@@H](CC(N)=O)C(=O)N[C@H](C(=O)N[C@@H](Cc1ccc(O)cc1)C(N)=O)[C@@H](C)O)C(C)C)[C@@H](C)O
notes: also called compound 32
B4: N^α1-[(4S)-4-carboxy-4-(19-carboxynonadecanoylamino)butanoyl]-[His14,Arg17,Pro21,Pro27,Glu35]-h-amylin (peptide)
peptide: {C20 diacid-γGlu}-KCNTATCATQRLAHFLRHSSPNFGAIPSSTNVGSETY-NH2
modifications: disulfide 2-7
SMILES: CC[C@H](C)[C@H](NC(=O)[C@H](C)NC(=O)CNC(=O)[C@H](Cc1ccccc1)NC(=O)[C@H](CC(N)=O)NC(=O)[C@@H]1CCCN1C(=O)[C@H](CO)NC(=O)[C@H](CO)NC(=O)[C@H](Cc1c[nH]cn1)NC(=O)[C@H](CCCNC(=N)N)NC(=O)[C@H](CC(C)C)NC(=O)[C@H](Cc1ccccc1)NC(=O)[C@H](Cc1c[nH]cn1)NC(=O)[C@H](C)NC(=O)[C@H](CC(C)C)NC(=O)[C@H](CCCNC(=N)N)NC(=O)[C@H](CCC(N)=O)NC(=O)[C@@H](NC(=O)[C@H](C)NC(=O)[C@@H]1CSSC[C@H](NC(=O)[C@H](CCCCN)NC(=O)CC[C@H](NC(=O)CCCCCCCCCCCCCCCCCCC(=O)O)C(=O)O)C(=O)N[C@@H](CC(N)=O)C(=O)N[C@@H]([C@@H](C)O)C(=O)N[C@@H](C)C(=O)N[C@@H]([C@@H](C)O)C(=O)N1)[C@@H](C)O)C(=O)N1CCC[C@H]1C(=O)N[C@@H](CO)C(=O)N[C@@H](CO)C(=O)N[C@H](C(=O)N[C@@H](CC(N)=O)C(=O)N[C@H](C(=O)NCC(=O)N[C@@H](CO)C(=O)N[C@@H](CCC(=O)O)C(=O)N[C@H](C(=O)N[C@@H](Cc1ccc(O)cc1)C(N)=O)[C@@H](C)O)C(C)C)[C@@H](C)O
notes: also called compound 30
B5: N^α1-[(4S)-4-carboxy-4-(19-carboxynonadecanoylamino)butanoyl]-[Glu14,Arg17,Pro21,Pro27,Pro29]-h-amylin (peptide)
peptide: {C20 diacid-γGlu}-KCNTATCATQRLAEFLRHSSPNFGAIPSPTNVGSNTY-NH2
modifications: disulfide 2-7
SMILES: CC[C@H](C)[C@H](NC(=O)[C@H](C)NC(=O)CNC(=O)[C@H](Cc1ccccc1)NC(=O)[C@H](CC(N)=O)NC(=O)[C@@H]1CCCN1C(=O)[C@H](CO)NC(=O)[C@H](CO)NC(=O)[C@H](Cc1c[nH]cn1)NC(=O)[C@H](CCCNC(=N)N)NC(=O)[C@H](CC(C)C)NC(=O)[C@H](Cc1ccccc1)NC(=O)[C@H](CCC(=O)O)NC(=O)[C@H](C)NC(=O)[C@H](CC(C)C)NC(=O)[C@H](CCCNC(=N)N)NC(=O)[C@H](CCC(N)=O)NC(=O)[C@@H](NC(=O)[C@H](C)NC(=O)[C@@H]1CSSC[C@H](NC(=O)[C@H](CCCCN)NC(=O)CC[C@H](NC(=O)CCCCCCCCCCCCCCCCCCC(=O)O)C(=O)O)C(=O)N[C@@H](CC(N)=O)C(=O)N[C@@H]([C@@H](C)O)C(=O)N[C@@H](C)C(=O)N[C@@H]([C@@H](C)O)C(=O)N1)[C@@H](C)O)C(=O)N1CCC[C@H]1C(=O)N[C@@H](CO)C(=O)N1CCC[C@H]1C(=O)N[C@H](C(=O)N[C@@H](CC(N)=O)C(=O)N[C@H](C(=O)NCC(=O)N[C@@H](CO)C(=O)N[C@@H](CC(N)=O)C(=O)N[C@H](C(=O)N[C@@H](Cc1ccc(O)cc1)C(N)=O)[C@@H](C)O)C(C)C)[C@@H](C)O
notes: also called compound 37
B6: N^α1-[(4S)-4-carboxy-4-(19-carboxynonadecanoylamino)butanoyl]-[Glu14,Arg17,Pro21,Pro27,Pro31]-h-amylin (peptide)
peptide: {C20 diacid-γGlu}-KCNTATCATQRLAEFLRHSSPNFGAIPSSTPVGSNTY-NH2
modifications: disulfide 2-7
SMILES: CC[C@H](C)[C@H](NC(=O)[C@H](C)NC(=O)CNC(=O)[C@H](Cc1ccccc1)NC(=O)[C@H](CC(N)=O)NC(=O)[C@@H]1CCCN1C(=O)[C@H](CO)NC(=O)[C@H](CO)NC(=O)[C@H](Cc1c[nH]cn1)NC(=O)[C@H](CCCNC(=N)N)NC(=O)[C@H](CC(C)C)NC(=O)[C@H](Cc1ccccc1)NC(=O)[C@H](CCC(=O)O)NC(=O)[C@H](C)NC(=O)[C@H](CC(C)C)NC(=O)[C@H](CCCNC(=N)N)NC(=O)[C@H](CCC(N)=O)NC(=O)[C@@H](NC(=O)[C@H](C)NC(=O)[C@@H]1CSSC[C@H](NC(=O)[C@H](CCCCN)NC(=O)CC[C@H](NC(=O)CCCCCCCCCCCCCCCCCCC(=O)O)C(=O)O)C(=O)N[C@@H](CC(N)=O)C(=O)N[C@@H]([C@@H](C)O)C(=O)N[C@@H](C)C(=O)N[C@@H]([C@@H](C)O)C(=O)N1)[C@@H](C)O)C(=O)N1CCC[C@H]1C(=O)N[C@@H](CO)C(=O)N[C@@H](CO)C(=O)N[C@H](C(=O)N1CCC[C@H]1C(=O)N[C@H](C(=O)NCC(=O)N[C@@H](CO)C(=O)N[C@@H](CC(N)=O)C(=O)N[C@H](C(=O)N[C@@H](Cc1ccc(O)cc1)C(N)=O)[C@@H](C)O)C(C)C)[C@@H](C)O
notes: also called compound 31

Biological target: T1, human calcitonin receptor
Test: cell-based or functional assay

| Binder | Ratio hCT/hAmylin funct. | hCTR funct. EC50 [nM] |
| --- | --- | --- |
| B1 | 4.8 | 0.742 |
| B2 | 1.1 | 0.087 |
| B3 | 6.6 | 0.327 |
| B4 | 12.6 | 1.68 |
| B5 | 4 | 0.372 |
| B6 | 6.4 | 0.717 |

Biological target: T2, human amylin receptor (amylin 3(a) …)
Test: cell-based or functional assay

| Binder | hAmylin-R funct. EC50 [nM] |
| --- | --- |
| B1 | 0.154 |
| B2 | 0.082 |
| B3 | 0.05 |
| B4 | 0.134 |
| B5 | 0.092 |
| B6 | 0.112 |
